Measured values: patent publication US20230235013A1 (MABSOLVE, published 2023)

T1: mouse FcRn (Sino Biological Cat. No. CT029-M08H) (mouse, UniProt Q61559 22-297; P01887 21-119)
T1 construct: Bought protein, captured on an anti-histidine chip
T1 sequence (looked up): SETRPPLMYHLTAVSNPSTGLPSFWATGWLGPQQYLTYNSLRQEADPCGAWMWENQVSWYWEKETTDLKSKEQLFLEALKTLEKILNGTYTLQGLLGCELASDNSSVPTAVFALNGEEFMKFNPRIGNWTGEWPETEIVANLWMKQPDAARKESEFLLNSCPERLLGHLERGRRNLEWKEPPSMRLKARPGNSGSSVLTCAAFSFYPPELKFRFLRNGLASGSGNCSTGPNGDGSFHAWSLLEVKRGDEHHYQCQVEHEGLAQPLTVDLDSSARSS
T1 sequence (b2m, looked up): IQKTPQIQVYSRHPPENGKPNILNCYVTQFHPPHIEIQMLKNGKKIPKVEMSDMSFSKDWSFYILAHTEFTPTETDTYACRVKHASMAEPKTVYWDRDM


What was measured:
[1] = biological target: T1, mouse FcRn (Sino Biological Cat. No. …); experiment: SPR, FcRn captured via anti-His, pH 6.0;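 also: SPR binding signal relative to the reference cell, corrected by subtracting the response of a blank sample of running buffer alone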
[2] = biological target: T2, human FcRn (R&D Systems Cat. No. 8639-Fc) (human, UniProt P55899 24-297; P61769 21-119); experiment: SPR, FcRn captured via anti-His, pH 6.0;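 also: SPR binding signal relative to the reference cell, corrected by subtracting the response of a blank sample of running buffer alone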
[3] = biological target: T3, cynomolgus monkey FcRn (Sino Biological Cat. No. CT031-C08H) (cynomolgus monkey, UniProt Q8SPV9 24-297; Q8SPW0 21-119); experiment: SPR, FcRn captured via anti-His, pH 6.0;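 also: SPR binding signal relative to the reference cell, corrected by subtracting the response of a blank sample of running buffer alone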
T3 construct: Bought protein, captured on an anti-histidine chip; also called cynomolgus FcRn

[4] = biological target: T2, human FcRn (R&D Systems Cat. No. …); experiment: SPR, FcRn captured; Mean
[5] = biological target: T4, Human C1q (Sigma Cat. No. 20476), HRP-labelled (human, UniProt P02745 23-245; P02746 28-253; P02747 29-245); experiment: ELISA, antibody coated, HRP-C1q; Expt 1, buffer alone 0.061
T4 construct: Coupled to horse-radish peroxidase with Lightning-Link kit; also called HRP-labelled C1q

[6] = biological target: T2, human FcRn (R&D Systems Cat. No. …); experiment: SPR, FcRn captured; Expt 1
[7] = biological target: T2, human FcRn (R&D Systems Cat. No. …); experiment: SPR, FcRn captured; Expt 3
[8] = biological target: T2, human FcRn (R&D Systems Cat. No. …); experiment: SPR, FcRn captured; Expt 2

Binder | Corrected response (RU) [1] [RU] | Corrected response (RU) [2] [RU] | Corrected response (RU) [3] [RU] | Corrected and normalised response (% of wild-type reference) [4] | Mean Absorbance [5] | Corrected and normalised response (% of wild-type reference) [6] | Corrected and normalised response (% of wild-type reference) [7] | Corrected and normalised response (% of wild-type reference) [8]
anti-CD20 (rituximab) human IgG1 G236R (antibody, EU numbering; also called 2-81; copies: 2 + 2) heavy: not shown light: QIVLSQSPAILSASPGEKVTMTCRASSSVSYIHWFQQKPGSSPKPWIYATSNLASGVPVRFSGSGSGTSYSLTISRVEAEDAATYYCQQWTSNPPTFGGGTKLEIKRTVAAPSVFIFPPSDEQLKSGTASVVCLLNNFYPREAKVQWKVDNALQSGNSQESVTEQDSKDSTYSLSSTLTLSKADYEKHKVYACEVTHQGLSSPVTKSFNRGEC | 173 | 570 | 1290 |  |  |  |  | 
anti-CD20 (rituximab) human IgG1 L234D/L235S/G236R (antibody, EU numbering; also called 2-10; 1-29; copies: 2 + 2) heavy: QVQLQQPGAELVKPGASVKMSCKASGYTFTSYNMHWVKQTPGRGLEWIGAIYPGNGDTSYNQKFKGKATLTADKSSSTAYMQLSSLTSEDSAVYYCARSTYYGGDWYFNVWGAGTTVTVSSASTKGPSVFPLAPSSKSTSGGTAALGCLVKDYFPEPVTVSWNSGALTSGVHTFPAVLQSSGLYSLSSVVTVPSSSLGTQTYICNVNHKPSNTKVDKKVEPKSCDKTHTCPPCPAPEDSRGPSVFLFPPKPKDTLMISRTPEVTCVVVDVSHEDPEVKFNWYVDGVEVHNAKTKPREEQYNSTYRVVSVLTVLHQDWLNGKEYKCKVSNKALPAPIEKTISKAKGQPREPQVYTLPPSRDELTKNQVSLTCLVKGFYPSDIAVEWESNGQPENNYKTTPPVLDSDGSFFLYSKLTVDKSRWQQGNVFSCSVMHEALHNHYTQKSLSLSPGK light: QIVLSQSPAILSASPGEKVTMTCRASSSVSYIHWFQQKPGSSPKPWIYATSNLASGVPVRFSGSGSGTSYSLTISRVEAEDAATYYCQQWTSNPPTFGGGTKLEIKRTVAAPSVFIFPPSDEQLKSGTASVVCLLNNFYPREAKVQWKVDNALQSGNSQESVTEQDSKDSTYSLSSTLTLSKADYEKHKVYACEVTHQGLSSPVTKSFNRGEC | 145 | 507 | 1200 |  |  |  |  | 
anti-CD20 (rituximab) human IgG1 L234Q/L235D/G236R (antibody, EU numbering; also called 2-28; copies: 2 + 2) heavy: QVQLQQPGAELVKPGASVKMSCKASGYTFTSYNMHWVKQTPGRGLEWIGAIYPGNGDTSYNQKFKGKATLTADKSSSTAYMQLSSLTSEDSAVYYCARSTYYGGDWYFNVWGAGTTVTVSSASTKGPSVFPLAPSSKSTSGGTAALGCLVKDYFPEPVTVSWNSGALTSGVHTFPAVLQSSGLYSLSSVVTVPSSSLGTQTYICNVNHKPSNTKVDKKVEPKSCDKTHTCPPCPAPEQDRGPSVFLFPPKPKDTLMISRTPEVTCVVVDVSHEDPEVKFNWYVDGVEVHNAKTKPREEQYNSTYRVVSVLTVLHQDWLNGKEYKCKVSNKALPAPIEKTISKAKGQPREPQVYTLPPSRDELTKNQVSLTCLVKGFYPSDIAVEWESNGQPENNYKTTPPVLDSDGSFFLYSKLTVDKSRWQQGNVFSCSVMHEALHNHYTQKSLSLSPGK light: QIVLSQSPAILSASPGEKVTMTCRASSSVSYIHWFQQKPGSSPKPWIYATSNLASGVPVRFSGSGSGTSYSLTISRVEAEDAATYYCQQWTSNPPTFGGGTKLEIKRTVAAPSVFIFPPSDEQLKSGTASVVCLLNNFYPREAKVQWKVDNALQSGNSQESVTEQDSKDSTYSLSSTLTLSKADYEKHKVYACEVTHQGLSSPVTKSFNRGEC | 170 | 490 | 1160 |  |  |  |  | 
anti-CD20 (rituximab) human IgG1 L234Q/L235A/G236R (antibody, EU numbering; also called 2-27; copies: 2 + 2) heavy: not shown light: QIVLSQSPAILSASPGEKVTMTCRASSSVSYIHWFQQKPGSSPKPWIYATSNLASGVPVRFSGSGSGTSYSLTISRVEAEDAATYYCQQWTSNPPTFGGGTKLEIKRTVAAPSVFIFPPSDEQLKSGTASVVCLLNNFYPREAKVQWKVDNALQSGNSQESVTEQDSKDSTYSLSSTLTLSKADYEKHKVYACEVTHQGLSSPVTKSFNRGEC | 154 | 513 | 1220 | 93.5 % of wild-type reference | 0.048 absorbance (450 nm) | 94.5 % of wild-type reference | 92.8 % of wild-type reference | 93.4 % of wild-type reference
anti-CD20 (rituximab) human IgG1 G236R/L328R (antibody, EU numbering; also called 2-68; copies: 2 + 2) heavy: not shown light: QIVLSQSPAILSASPGEKVTMTCRASSSVSYIHWFQQKPGSSPKPWIYATSNLASGVPVRFSGSGSGTSYSLTISRVEAEDAATYYCQQWTSNPPTFGGGTKLEIKRTVAAPSVFIFPPSDEQLKSGTASVVCLLNNFYPREAKVQWKVDNALQSGNSQESVTEQDSKDSTYSLSSTLTLSKADYEKHKVYACEVTHQGLSSPVTKSFNRGEC | 206 | 567 | 1290 |  |  |  |  | 

Results, then the binder that gave them:

Corrected response (RU) [1] [RU] | Corrected response (RU) [2] [RU] | Corrected response (RU) [3] [RU] | Corrected and normalised response (% of wild-type reference) [4] | Mean Absorbance [5] | Corrected and normalised response (% of wild-type reference) [6] | Corrected and normalised response (% of wild-type reference) [7] | Corrected and normalised response (% of wild-type reference) [8] | Binder
180 | 533 | 1240 |  |  |  |  |  | anti-CD20 (rituximab) human IgG1 L234Q/L235R/G236R (antibody, EU numbering; also called 2-32; copies: 2 + 2) heavy: QVQLQQPGAELVKPGASVKMSCKASGYTFTSYNMHWVKQTPGRGLEWIGAIYPGNGDTSYNQKFKGKATLTADKSSSTAYMQLSSLTSEDSAVYYCARSTYYGGDWYFNVWGAGTTVTVSSASTKGPSVFPLAPSSKSTSGGTAALGCLVKDYFPEPVTVSWNSGALTSGVHTFPAVLQSSGLYSLSSVVTVPSSSLGTQTYICNVNHKPSNTKVDKKVEPKSCDKTHTCPPCPAPEQRRGPSVFLFPPKPKDTLMISRTPEVTCVVVDVSHEDPEVKFNWYVDGVEVHNAKTKPREEQYNSTYRVVSVLTVLHQDWLNGKEYKCKVSNKALPAPIEKTISKAKGQPREPQVYTLPPSRDELTKNQVSLTCLVKGFYPSDIAVEWESNGQPENNYKTTPPVLDSDGSFFLYSKLTVDKSRWQQGNVFSCSVMHEALHNHYTQKSLSLSPGK light: QIVLSQSPAILSASPGEKVTMTCRASSSVSYIHWFQQKPGSSPKPWIYATSNLASGVPVRFSGSGSGTSYSLTISRVEAEDAATYYCQQWTSNPPTFGGGTKLEIKRTVAAPSVFIFPPSDEQLKSGTASVVCLLNNFYPREAKVQWKVDNALQSGNSQESVTEQDSKDSTYSLSSTLTLSKADYEKHKVYACEVTHQGLSSPVTKSFNRGEC
168 | 540 | 1240 |  |  |  |  |  | anti-CD20 (rituximab) human IgG1 L235A/G236R (antibody, EU numbering; also called 2-79; copies: 2 + 2) heavy: not shown light: QIVLSQSPAILSASPGEKVTMTCRASSSVSYIHWFQQKPGSSPKPWIYATSNLASGVPVRFSGSGSGTSYSLTISRVEAEDAATYYCQQWTSNPPTFGGGTKLEIKRTVAAPSVFIFPPSDEQLKSGTASVVCLLNNFYPREAKVQWKVDNALQSGNSQESVTEQDSKDSTYSLSSTLTLSKADYEKHKVYACEVTHQGLSSPVTKSFNRGEC
189 | 530 | 1220 |  |  |  |  |  | anti-CD20 (rituximab) human IgG1 L235S/G236R (antibody, EU numbering; also called 2-80; copies: 2 + 2) heavy: not shown light: QIVLSQSPAILSASPGEKVTMTCRASSSVSYIHWFQQKPGSSPKPWIYATSNLASGVPVRFSGSGSGTSYSLTISRVEAEDAATYYCQQWTSNPPTFGGGTKLEIKRTVAAPSVFIFPPSDEQLKSGTASVVCLLNNFYPREAKVQWKVDNALQSGNSQESVTEQDSKDSTYSLSSTLTLSKADYEKHKVYACEVTHQGLSSPVTKSFNRGEC
146 | 547 | 1250 |  |  |  |  |  | anti-CD20 (rituximab) human IgG1 L235G/G236R (antibody, EU numbering; also called 2-83; copies: 2 + 2) heavy: not shown light: QIVLSQSPAILSASPGEKVTMTCRASSSVSYIHWFQQKPGSSPKPWIYATSNLASGVPVRFSGSGSGTSYSLTISRVEAEDAATYYCQQWTSNPPTFGGGTKLEIKRTVAAPSVFIFPPSDEQLKSGTASVVCLLNNFYPREAKVQWKVDNALQSGNSQESVTEQDSKDSTYSLSSTLTLSKADYEKHKVYACEVTHQGLSSPVTKSFNRGEC
142 | 509 | 1170 |  |  |  |  |  | anti-CD20 (rituximab) human IgG1 L234Q/L235S, sample 2-82 (antibody, EU numbering; copies: 2 + 2) heavy: not shown light: QIVLSQSPAILSASPGEKVTMTCRASSSVSYIHWFQQKPGSSPKPWIYATSNLASGVPVRFSGSGSGTSYSLTISRVEAEDAATYYCQQWTSNPPTFGGGTKLEIKRTVAAPSVFIFPPSDEQLKSGTASVVCLLNNFYPREAKVQWKVDNALQSGNSQESVTEQDSKDSTYSLSSTLTLSKADYEKHKVYACEVTHQGLSSPVTKSFNRGEC
